Publication PMC4137059 (The Journal of Cell Biology, 2014)
No end group written: not given here.

B1: Mtw1 complex (recombinant four-protein complex with a deletion of the N-terminal 172 residues of Dsn1) (complex)
chain 1: MSAPTMRSTSILTEHLGYPPISLVDDIINAVNEIMYKCTAAMEKYLLSKSKIGEEDYGEEIKSGVAKLESLLENSVDKNFDKLELYVLRNVLRIPEEYLDANVFRLENQKDLVIVDENELKKSEEKLREKVNDVELAFKKNEMLLKRVTKVKRLLFTIRGFKQKLNELLKCKDDVQLQKILESLKPIDDTMTLLTDSLRKLYVDSESTSSTEEVEALLQRLKTNGKQNNKDFRTRYIDIRTNNVLRKLGLLGDKEDEKQSAKPDARTQAGDIVSIDIEEPQLDLLDDVL
chain 2: MVNSHGIRYIRLKQVFNRALDQSISKLQSWDKVSSCFPQYVNSKQGAINVANCQRQLTEFWTELCQREFKEIMEERNVEQKLNELDELILEAKERYTDRDQDEVNKGPAIDELSSKELVECHLYSQRMHAIHEIDERLAKVNEMNDQLAQELKDLETQVEVEKNEIGKMYDEYLGSHTDQPANVLLVQSLNDMVLELKENY
chain 3: MSQGQSKKLDVTVEQLRSIYHQFHDILEEKTDLHLPKKEYDDDAVRREVQIQLQEFLLSAMTMASKSLEVVNADTVGKTVKQLIMESQEKYMEPFDLDLNEQVRKMYQEWEDETVKVAQLRQTGPAKINEVYNNSKDEYLAQLDGRIGVLQARMMQQQSADHDDSTDDADDHINWEHIKQDYVASLNELYQTQQDLPKVRYNVEKVKRLMDFLEED
chain 4: HSIMPNSSLQPFYSQPTAAGGPDMTTPQNISSSQQLLPAPQLFPYGSFHQQQLQQPHYIQRTRERKKSIGSQRGRRLSMLASQANGGSTIISPHKDIPEEDFYTVVGNASFGKNLQIRQLFNWCLMRSLHKLELKAKNQEEEGELEHLTKKSKLESTKAETDYVDPKRLAMVIIKEFVDDLKKDHIAIDWEDEEKYEDEDEEKILDNTENYDDTELRQLFQENDDDDDDDDEVDYSEIQRSRRKFSERRKALPKEPKKLLPNSKNVENTKNLSILTSKVNAIKNEVKEWAVTLDTSRPDLEWQELTSFSSQPLEPLSDTEEPDLAIADVETKLETKVDELRYQSHILNSHSLALNEITNSKVNKLNIETMRKISSETDDDHSQVINPQQLLKGLSLSFSKKLDL
B2: Mtw1-Nnf1 heterodimer (complex)
chain 1: B1 chain 1
chain 2: B1 chain 2
B3: GST-Ame1^1-30 (domain or fragment)
chain: {GST}-MDRDTKLAFRLRGSHSRRTDDIDDDVIVFK

Legend:
[1] = target: Ndc80 complex (budding yeast, UniProt P40460;P33895;Q04477;P40014); experiment: SEC
Ndc80 complex, sequence (P40460 whole entry, chain 1 of 4): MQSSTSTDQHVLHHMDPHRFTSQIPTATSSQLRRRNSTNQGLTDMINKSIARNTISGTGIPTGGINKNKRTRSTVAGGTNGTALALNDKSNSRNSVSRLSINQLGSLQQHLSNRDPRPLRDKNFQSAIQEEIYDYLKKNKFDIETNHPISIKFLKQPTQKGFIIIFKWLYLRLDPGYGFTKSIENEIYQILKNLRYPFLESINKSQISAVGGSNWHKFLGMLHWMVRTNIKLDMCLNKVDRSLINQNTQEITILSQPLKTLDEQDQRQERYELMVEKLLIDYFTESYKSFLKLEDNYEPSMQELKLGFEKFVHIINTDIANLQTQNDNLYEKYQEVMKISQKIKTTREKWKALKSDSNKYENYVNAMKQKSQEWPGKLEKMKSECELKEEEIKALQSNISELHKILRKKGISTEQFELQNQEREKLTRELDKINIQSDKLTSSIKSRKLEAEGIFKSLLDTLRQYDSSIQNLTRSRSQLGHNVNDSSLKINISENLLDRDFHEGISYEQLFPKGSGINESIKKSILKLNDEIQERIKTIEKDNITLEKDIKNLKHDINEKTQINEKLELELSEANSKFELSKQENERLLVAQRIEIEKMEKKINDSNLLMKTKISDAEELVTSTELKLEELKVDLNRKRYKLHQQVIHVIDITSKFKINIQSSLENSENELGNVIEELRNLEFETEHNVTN
Ndc80 complex, sequence (P33895 whole entry, chain 2 of 4): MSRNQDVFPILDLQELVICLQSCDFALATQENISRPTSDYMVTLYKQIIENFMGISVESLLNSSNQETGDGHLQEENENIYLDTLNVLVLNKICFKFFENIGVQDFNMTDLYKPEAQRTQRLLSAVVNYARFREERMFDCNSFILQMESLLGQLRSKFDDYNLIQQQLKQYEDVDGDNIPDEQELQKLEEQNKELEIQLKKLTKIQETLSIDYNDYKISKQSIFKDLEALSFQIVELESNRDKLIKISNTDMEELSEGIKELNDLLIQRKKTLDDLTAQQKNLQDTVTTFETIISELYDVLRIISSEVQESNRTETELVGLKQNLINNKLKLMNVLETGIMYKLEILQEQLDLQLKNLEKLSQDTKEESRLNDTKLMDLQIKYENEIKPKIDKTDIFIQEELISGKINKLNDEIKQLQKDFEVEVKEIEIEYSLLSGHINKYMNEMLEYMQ
Ndc80 complex, sequence (Q04477 whole entry, chain 3 of 4): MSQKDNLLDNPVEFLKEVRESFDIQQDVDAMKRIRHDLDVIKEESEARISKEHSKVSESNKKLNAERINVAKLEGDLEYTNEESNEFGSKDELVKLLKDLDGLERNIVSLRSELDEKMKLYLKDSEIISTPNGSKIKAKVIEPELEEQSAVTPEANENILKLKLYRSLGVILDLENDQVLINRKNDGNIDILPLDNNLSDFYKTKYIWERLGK
Ndc80 complex, sequence (P40014 whole entry, chain 4 of 4): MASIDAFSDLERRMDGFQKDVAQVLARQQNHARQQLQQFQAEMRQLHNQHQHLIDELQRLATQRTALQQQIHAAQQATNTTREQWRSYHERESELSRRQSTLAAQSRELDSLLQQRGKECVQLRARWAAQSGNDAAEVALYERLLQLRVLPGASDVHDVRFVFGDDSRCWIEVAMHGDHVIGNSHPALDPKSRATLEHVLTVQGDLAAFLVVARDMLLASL

[2] = target: Ame1–Okp1 complex (budding yeast, UniProt P38313;P53298); experiment: ITC
Ame1–Okp1 complex, sequence (P53298 whole entry, one chain of several): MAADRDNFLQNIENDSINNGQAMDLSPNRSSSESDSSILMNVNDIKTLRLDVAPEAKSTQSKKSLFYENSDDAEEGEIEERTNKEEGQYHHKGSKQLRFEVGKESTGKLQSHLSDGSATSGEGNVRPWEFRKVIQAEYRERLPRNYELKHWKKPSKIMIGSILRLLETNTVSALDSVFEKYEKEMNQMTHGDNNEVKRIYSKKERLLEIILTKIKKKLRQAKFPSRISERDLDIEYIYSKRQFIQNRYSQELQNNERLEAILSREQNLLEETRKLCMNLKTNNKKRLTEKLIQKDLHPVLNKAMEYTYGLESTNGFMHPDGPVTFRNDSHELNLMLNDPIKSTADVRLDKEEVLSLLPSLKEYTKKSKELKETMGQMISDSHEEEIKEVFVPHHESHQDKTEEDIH

[3] = target: B2; experiment: ITC

B1: binds [1].

B2 was tested, and the Kd [2] was 1600 nM and the “stoichiometry N” value [2] was 1.

B3 showed a Kd [3] of 1500 nM.
